Assay results published in PMC4609988 (Scientific Reports, 2015).
Numbering of substitutions follows the chain as printed. Blank lines part the entries; values can stand above or below the binder they belong to.

Tests used:
GCN-Ang1 = GCN-Ang1 ( | human); assay: non-reducing SDS-PAGE; proteins taken from the media of transfected HEK293 cells with streptactin sepharose, SDS-PAGE under non-reduced (NR) and reduced (R) conditions, immunoblot with anti-Ang1 antibody; disulfide-linked oligomers; settings: both partners purified
[1] = target: the molecule itself; assay: as above
CMP-Ang1-2 = target: T1, CMP-Ang1-2 (human); assay: negative-stain transmission electron microscopy; purified proteins on carbon-coated copper grids, stained with 0.75% uranyl formate, 120 kV; settings: both partners purified
T1 chain: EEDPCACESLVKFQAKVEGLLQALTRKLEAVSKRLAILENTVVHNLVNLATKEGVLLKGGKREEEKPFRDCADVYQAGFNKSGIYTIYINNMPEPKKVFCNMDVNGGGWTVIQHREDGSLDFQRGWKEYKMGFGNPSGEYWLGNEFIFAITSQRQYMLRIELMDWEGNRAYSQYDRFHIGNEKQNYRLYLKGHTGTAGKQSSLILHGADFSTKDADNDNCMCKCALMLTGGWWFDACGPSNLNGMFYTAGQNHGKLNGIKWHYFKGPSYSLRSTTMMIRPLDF

COMP-Ang1 = target: T2, COMP-Ang1 ( | human); assay: non-reducing SDS-PAGE; proteins taken from the media of transfected HEK293 cells with streptactin sepharose, SDS-PAGE under non-reduced (NR) and reduced (R) conditions, immunoblot with anti-Ang1 antibody; disulfide-linked oligomers; settings: both partners purified
T2 chain: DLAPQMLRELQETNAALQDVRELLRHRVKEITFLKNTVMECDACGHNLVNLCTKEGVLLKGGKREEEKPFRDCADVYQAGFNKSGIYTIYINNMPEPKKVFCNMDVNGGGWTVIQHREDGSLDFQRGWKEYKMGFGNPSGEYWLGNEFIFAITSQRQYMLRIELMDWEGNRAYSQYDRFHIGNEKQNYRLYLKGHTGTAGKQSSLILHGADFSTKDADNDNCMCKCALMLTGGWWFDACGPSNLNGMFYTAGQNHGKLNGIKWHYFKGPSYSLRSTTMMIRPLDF

Fc-Ang1 = target: T3, Fc-Ang1 (human); assay: as above; settings: both partners purified
T3 chain: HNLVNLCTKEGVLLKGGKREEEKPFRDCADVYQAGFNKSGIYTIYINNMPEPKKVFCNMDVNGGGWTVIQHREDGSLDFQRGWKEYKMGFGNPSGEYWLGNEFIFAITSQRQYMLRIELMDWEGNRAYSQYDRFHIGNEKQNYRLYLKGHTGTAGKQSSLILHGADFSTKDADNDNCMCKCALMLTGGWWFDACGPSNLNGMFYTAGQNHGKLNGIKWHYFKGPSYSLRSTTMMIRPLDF

stoichiometry N (GCN-Ang1): 2
B1: GCN-Ang1 (ligand)
chain: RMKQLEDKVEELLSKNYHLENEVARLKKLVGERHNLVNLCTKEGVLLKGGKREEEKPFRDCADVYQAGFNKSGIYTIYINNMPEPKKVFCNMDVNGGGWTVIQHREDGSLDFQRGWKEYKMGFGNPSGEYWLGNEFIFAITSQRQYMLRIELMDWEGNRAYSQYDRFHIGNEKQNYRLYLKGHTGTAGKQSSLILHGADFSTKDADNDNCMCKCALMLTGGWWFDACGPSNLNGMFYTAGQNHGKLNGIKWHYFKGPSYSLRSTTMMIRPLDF
modifications: N-glycan at Ang1 Asn295 / N-glycan at Ang1 Asn295

B2: CMP-Ang1-3 (dimeric CMP-Ang1), produced in HEK293 cells (ligand)
chain: T1 chain with C5A
modifications: N-glycan at asparagine 106 (complex tri- (~57%) or tetra- (~25%) antennary type glycans with one or two fucose residues)
stoichiometry N [1]: 2

stoichiometry N (CMP-Ang1-2): 3
B3: CMP-Ang1-2 (ligand)
chain: T1 chain
modifications: inter-chain disulfides; N-glycan at Ang1 Asn295 (construct Asn106) / inter-chain disulfides; N-glycan at Ang1 Asn295 (construct Asn106)

stoichiometry N (COMP-Ang1): 5
B4: COMP-Ang1 (ligand)
chain: T2 chain
modifications: inter-chain disulfides; N-glycan at Ang1 Asn295 (construct Asn109) / inter-chain disulfides; N-glycan at Ang1 Asn295 (construct Asn109)

stoichiometry N (Fc-Ang1): 2
B5: Fc-Ang1 (Fc fusion)
chain: T3 chain
modifications: dimerized through N-terminal human IgG1 Fc; N-glycan at Ang1 Asn295 / dimerized through N-terminal human IgG1 Fc; N-glycan at Ang1 Asn295
